Data: US20240279601A1, “METHODS OF GENERATING SACRAL NEURAL CREST LINEAGES AND USES THEREOF” (MEMORIAL SLOAN-KETTERING CANCER CENTER, priority 2021, published 2024)
Ends that are not written are not given here.

Key:
[1] = test system: hPSCs; experiment: HOX and NC gene expression (qRT-PCR) during neural crest differentiation of hPSCs; assay type: cell-based, human; settings: for expression of HOX regulatory genes (CDX1, CDX2, CDX4): combined treatment with CHIR99021 and FGF2; for expression of posterior genes HoxB7, HoxC9, HoxA10 and CDX4: different concentrations of FGF2 and CHIR99021 together
Procedure: NC differentiation. The basic NC differentiation protocols used are based on previous works (Fattahi et al., Nature 531, 105-109, 2016; Tchieu et al., Cell Stem Cell 21, 399-410 e397, 2017). Briefly, matrigel (Thermo Fisher, A1413201) was diluted at 1:100 ratio in DMEMF-12 (Thermo Fisher, 21331020) and plates were coated with the diluted matrigel overnight at 4° C. For inducing differentiation, hESCs or iPSCs were dissociated at 70%-80% confluence using EDTA dissociation buffer and replated as a single cell suspension on matrigel-coated 24-well plates at a density of 100K cells/cm^2 in E6 medium containing 10 μM ROCK-inhibitor (Y-27632; R&D, 1254). The cells were kept in E6 medium (Thermo Fisher, A1516401)+Y-27632 overnight. The next day, the medium was switched to NC induction medium. For cranial differentiation, the cells were kept in E6 medium containing 10 μM SB431542 (R&D, 1614), […] (R&D, 314-BP), and 0.6 μM CHIR (R&D, 4423) for the first 2 days and then switched to E6 medium containing 10 μM SB431542 and 1.5 μM CHIR for 10 days. For vagal NC the same conditions were used with an additional 1 μM RA (Sigma, R2625) added to the medium starting from D6. To establish the sacral NC protocol, the cranial NC protocol was modified with varying concentrations of FGF2 (R&D, 233-FB/CF), CHIR and GDF11 (Peprotech, 120-11), added at different time points as detailed in the results section. For the generation of melanocytes, 100 nM EDN3 (American Peptide company, 88-5-10B) was added to the sacral NC protocol from day 14 to day 20. In experiments testing the RA hypothesis, the sacral NC protocol was modified using either 1 μM RA (Sigma, R2625) or 100 nM AGN (Tocris, 5758) as detailed in the experimental design section.
RNA extraction and RT-qPCR. RNA was prepared from samples collected with the Zymo Direct-zol Kit and extracted using the Direct-zol RNA MiniPrep kit. cDNA was generated using the iScript Reverse Transcription Supermix for RT-qPCR. For qPCR analysis, primers were obtained from QIAGEN or IDT and the reactions were performed following manufacturers' instructions using SsoFast EvaGreen® Supermix. The Assays were run on BioRad CFX384 Real-Time PCR machine. Results were normalized to GAPDH housekeeping genes.

[2] = test system: rodent GSK3β homologs; settings: against rodent GSK3β homologs; cited from earlier work
[3] = test system: vagal NC; experiment: Migration (surface area) of NC cells in response to growth factors; assay type: cell-based, human; settings: 0.1x, 1x, 10x of standard concentration (100 nM EDN3, 25 ng/ml GDNF)
Procedure: (§1) Fluorescence image of cells and their migration at different time points: 0 hour (upper panel), 24 hours (middle panel), 48 hours (bottom panel). Scale bars, 50 pm. […] Scale bars, 500 pm. […] N=6 biological replicates. FIGS. 32D and 32E show surface area VNC or SNC cells in response to different growth factors. 1 equates to standard concentration (100 nM and 25 ng/ml for EDN3 and GDN F respectively), 0.1 equates to 1/10 of standard concentration and 10 equates to 10 times higher than the standard concentration. Surface area is quantified by ImageJ. N=4 biological replicates. […] The images are taken at different time points after transplantation: 1 Hour (left panel), 2 weeks (middle panel), 4 weeks (right panel). […] Data are present as Mean±SEM; ns: not significant P>0.05; *P≤0.05; **P≤0.01; ***P≤0.001; ****P≤0.0001
(§2) Migration and co-differentiation assays. Transwell assay: to test capacity of NC cells for invasion, we used the CytoSelect 24-Well Cell Invasion Assay, Basement (Cell Biolabs). We plated 200K cells per chamber in neural spheroids medium and added 500 μL of neural spheroid medium containing 10% fetal bovine serum to the lower well of the invasion plate and incubated the plate for 48 h at 37° C. in 5% CO2 atmosphere. Cells that crossed through the invasion chamber were stained with the Cell Stain Solution provided with the kit (Cell Biolabs) and examined under the microscope. The stained cells were then lysed and measured by plate reader for quantification. Migration assay: vagal or sacral neural spheroids were generated as described in enteric neuron differentiation section. Those spheroids were plated down on a 2D PO/LM/FN coated plated for assessing surface migration or embedded in […]) Matrigel for assessing migration within a Matrigel pellet. Pictures were taken at sequential time points post plating to trace the migration process. Scratch assay: vagal or sacral NC cells were plated on PO/LM/FN coated 24 well plates at density of 100×10^3 cells per cm^2. After 24 h, the culture lawn is scratched manually using a pipette tip. Live images are taken at different time points after the scratch was made to trace the migration.

[4] = test system: sacral NC; experiment: as above; assay type: cell-based, human
Procedure: as §1, §2

[5] = test system: hPSCs; experiment: RNA-seq and ATAC-seq of NC differentiation with or without GDF11; assay type: cell-based, human
Procedure: RNA sequencing (RNA-seq). Cells were disassociated with Accutase for 20 minutes at 37° C. The cells were collected into 15 mL falcon tubes and DMEMF-12 containing 2% FBS was added to neutralize the enzyme. The cells were spun down and washed with PBS twice. The cells were spun down again in 1.5 mL Eppendorf tube and resuspended in 500 μL TRIzol (ThermoFisher catalog #15596018) and stored at −80° C. When all data points were collected, the samples underwent RNA extraction and RNA-seq as performed by the IGO core at MSKCC. Briefly, phase separation in cells lysed in 1 mL TRIzol Reagent was induced with 200 μL chloroform and RNA was extracted from the aqueous phase using the miRNeasy Mini Kit (Qiagen catalog #217004) on the QIAcube Connect (Qiagen) according to the manufacturer's protocol with 350 μL input. Samples were eluted in 15 μL RNase-free water. After RiboGreen quantification and quality control by Agilent BioAnalyzer, 500 ng of total RNA with RIN values of 9.6-10 underwent polyA selection and TruSeq library preparation according to instructions provided by Illumina (TruSeq Stranded mRNA LT Kit, catalog #RS-122-2102), with 8 cycles of PCR. Samples were barcoded and run on a HiSeq 4000 in a PE100 run, using the HiSeq 3000/4000 SBS Kit (Illumina). An average of 53 million paired reads was generated per sample and the percent of mRNA bases averaged 85%.
RNA-seq bioinformatics. STAR aligner (Dobin et al., Bioinformatics 29, 15-21, 2013) was used to map reads to the human genome (GRCh37). The 2-pass mapping method (Engström et al., Nature methods 10, 1185-1191, 2013) was used, in which the reads are mapped twice. SAM files were processed and converted to BAM format using PICARD tools and then HTseq was used to compute the expression count matrix from the mapped reads. DESeq2 (Love et al., Genome Biology 15, 550, 2014) was used to normalize the raw counts (Median of Ratios method) and perform differential gene expression analysis. Data are presented on a gene-by-gene basis as normalized counts or after carrying out a variance-stabilizing transformation followed by PCA analysis.
ATAC sequencing (ATAC-seq). Cells were disassociated with Accutase for 20 minutes at 37° C. The cells were collected into 15 mL falcon tubes and DMEMF-12 containing 2% FBS was added to neutralize the enzyme. The cells were spun down and washed with PBS twice. The cells were spun again in a 1.5 mL Eppendorf tube and resuspended in 500 μL stem cell banker cell freezing buffer and stored at liquid nitrogen tank. When all data points were collected, the samples were sent to IGO core. ATAC-seq was performed by IGO core at MSKCC. Profiling of chromatin was performed by ATAC-Seq as described in Buenrostro et al., Nat Methods 10, 1213-1218, 2013. Briefly, 50,000 viably frozen neural crest cells were washed in cold PBS and lysed. The transposition reaction was carried out using TDEI Tagment DNA Enzyme (Illumina catalog #20034198) incubated at 37° C. for 30 minutes. The DNA was cleaned with the MinElute PCR Purification Kit (QIAGEN catalog #28004) and material was amplified for 5 cycles using NEBNext High-Fidelity 2×PCR Master Mix (New England Biolabs catalog #M0541L). After evaluation by real-time PCR, 7-10 additional PCR cycles were done. The final product was cleaned by aMPure XP beads (Beckman Coulter catalog #A63882) at a 1× ratio, and size selection was performed at a 0.5× ratio. […] An average of 42 million paired reads were generated per sample. […]

[6] = low to medium level of EDN3, GDNF
[7] = RNA seq, day 3, following GDF11 treatment
[8] = early exposure to GDF11 in combination with FGF2 and CHIR

Question: Which HOXC9 expression ([1]; RA 1 μM or AGN 100 nM added to NC protocol) does the source give for `Cc1ccc(C2=CCC(C)(C)c3ccc(C#Cc4ccc(C(=O)O)cc4)cc32)cc1` [AGN, reference compound] here?
Answer: increased

Question: And the “sacral HOX gene expression” value ([1]; RA inhibition in GDF11 treated cultures)?
Answer: minimal impact

Question: What about the HOXC10 expression ([1]; RA inhibition in trunk NC (BMP condition)) of the same molecule?
Answer: promoted

Question: Which IC50 values [2] does the source give for `Cc1c[nH]c(-c2cnc(NCCNc3ccc(C#N)cn3)nc2-c2ccc(Cl)cc2Cl)n1` [CHIR99021, 6-(2-(4-(2,4-dichlorophenyl)-5-(4-methyl-1H-imidazol-2-yl)pyrimidin-2-ylamino)ethylamino)nicotinonitrile, reference compound] here?
Answer: nanomolar

Question: What about the “expression of HOX regulatory genes (CDX1, CDX2, CDX4)” value [1] of the same molecule?
Answer: induced expression

Question: What about the “expression of posterior genes HoxB7, HoxC9, HoxA10 and CDX4” value [1] of the same molecule?
Answer: induced the expression

Question: What does the source list for “EDN3: growth factor EDN3 (American Peptide company, 88-5-10B) (CTCFTYKDKECVYYCHLDIIW; ends and bridges not checked; cysteine pairing not given here; UniProt P14138 97-117, looked up)”?
Answer: vagal NC migration [3]: highly promoted; sacral NC migration ([4]; high EDN3 concentration): suppressed; sacral NC migration [4, 6]: promoted

Question: For “FGF2: activator of FGF signaling (R&D, 233-FB/CF)”, which “expression of HOX regulatory genes (CDX1, CDX2, CDX4)” value [1] is on record?
Answer: induced expression

Question: What about the “expression of posterior genes HoxB7, HoxC9, HoxA10 and CDX4” value [1] of the same molecule?
Answer: induced the expression

B1: GDF11: growth differentiation factor 11 or bone morphogenetic protein 11, a TGFβ family protein encoded by the GDF11 gene (protein, UniProt O95390 299-407, looked up)
Growth/differentiation factor …: NLGLDCDEHSSESRCCRYPLTVDFEAFGWDWIIAPKRYKANYCSGQCEYMFMQKYPHTHLVQQANPRGSAGPCCTPTKMSPINMLYFNDKQQIIYGKIPGMVVDRCGCS
Question: With B1 as the molecule, how does the “levels of H3K4 methyltransferases such as SMYD2” value [5, 7] read?
Answer: decreased levels

Question: What about the “levels of H3K27Me3 demethylases JMJD6 and KDM6B” value [5, 7] of the same molecule?
Answer: increased levels

Question: And the “gene expression of GRHL1, GRHL2 and GRHL3” value ([5]; following GDF11 exposure)?
Answer: significant decrease

Question: What about the “chromatin accessibility of GRHL factors” value ([5]; following GDF11 exposure, ATAC-seq) of the same molecule?
Answer: significant decrease

Question: What about the “expression of RA signaling genes CRABP2, CYP26A1 and RBP4” value ([5]; following GDF11 treatment) of the same molecule?
Answer: reduced

Question: And the “transition from TNCs to SNCs” value [1]?
Answer: promoted the transition

Question: What about the “expression of posterior Hox genes by time of addition” value ([1]; GDF11 added from day 0 to day 3 versus later time points) of the same molecule?
Answer: higher expression

Question: And the “expression of stem cell-related factors SOX2 and MYC” value ([1]; GDF11 treated cultures)?
Answer: increased expression

Question: What about the “expression of the more anterior HOX genes (HOX4-9)” value [1, 8] of the same molecule?
Answer: without affecting

Question: And the “sacral HOX gene expression (HOX10-13)” value [1, 8]?
Answer: dramatic and selective increase

B2: GDNF: glial cell line derived neurotrophic factor (Peprotech, 450-10) (protein, UniProt P39905 78-211, looked up)
Glial cell line-derived …: SPDKQMAVLPRRERNRQAAAANPENSRGKGRRGQRGKNRGCVLTAIHLNVTDLGLGYETKEELIFRYCSGSCDAAETTYDKILKNLSRNRRLVSDKVGQACCRPIAFDDDLSFLDDNLVYHILRKHSAKRCGCI
Question: With B2 as the molecule, how does the “vagal NC migration” value [3] read?
Answer: barely affected

Question: And the “sacral NC migration” value [4, 6]?
Answer: promoted
